B1: ADD1 (parent)
chain: GEGTGSPPKWQIGEQEFEALMRML
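Note: lentivirally expressed fusions sorted by FACS into six bins by GFP to DsRed ratio, PSI derived from sequencing read proportions per bin multiplied by bin number.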

This data set covers variants of B1. Kind of data set: protein stability index of a GFP-peptide fusion (GPS, HEK-293T) (PSI 1-6); higher = more stable. Conditions: c terminus: a fixed tail appended.
Regarding GEGTGDPPKWQIGEQEFEALMRML [S6D], the protein stability index was determined as 3.25. Next, GEGTGWPPKWQIGEQEFEALMRML [S6W]: 2.19. Take GEGTGPPPKWQIGEQEFEALMRML [S6P]: the protein stability index amounted to 2.95.

For GEGTGAPPKWQIGEQEFEALMRML [S6A], the protein stability index was determined as 2.87. Turning to GEGTGNPPKWQIGEQEFEALMRML [S6N], the protein stability index worked out at 2.8.

For the variant GEGTGKPPKWQIGEQEFEALMRML [S6K], the protein stability index is 2.12. Regarding GEGTGEPPKWQIGEQEFEALMRML [S6E], the protein stability index was 3.45. Turning to GEGTGVPPKWQIGEQEFEALMRML [S6V], the protein stability index stood at 2.46. The figure for GEGTGRPPKWQIGEQEFEALMRML [S6R] is 3.75; for GEGTGTPPKWQIGEQEFEALMRML [S6T] it is 2.68. Next, GEGTGLPPKWQIGEQEFEALMRML [S6L]: 3.03; GEGTGFPPKWQIGEQEFEALMRML [S6F]: 1.88. As for GEGTGCPPKWQIGEQEFEALMRML [S6C], the protein stability index stood at 2.75. For the variant GEGTGHPPKWQIGEQEFEALMRML [S6H], the protein stability index turned out to be 2.76. GEGTGMPPKWQIGEQEFEALMRML [S6M]: the protein stability index was found to be 3.91. As for GEGTGIPPKWQIGEQEFEALMRML [S6I], the protein stability index came to 2.75.

On to GEGTGGPPKWQIGEQEFEALMRML [S6G], for which the protein stability index amounted to 2.55. As to GEGTGQPPKWQIGEQEFEALMRML [S6Q], the protein stability index is 2.85. On to GEGTGYPPKWQIGEQEFEALMRML [S6Y], for which the protein stability index was found to be 2.59.

In the case of GEGCGSPPKWQIGEQEFEALMRML [T4C], the protein stability index came to 2.94. As to GEGPGSPPKWQIGEQEFEALMRML [T4P], the protein stability index amounted to 3.06. Next, GEGAGSPPKWQIGEQEFEALMRML [T4A]: 3.63. As to GEGEGSPPKWQIGEQEFEALMRML [T4E], the protein stability index came out at 3.51. Turning to GEGGGSPPKWQIGEQEFEALMRML [T4G], the protein stability index was determined as 3.14.

With GEGFGSPPKWQIGEQEFEALMRML [T4F], the protein stability index stood at 2.35. For GEGSGSPPKWQIGEQEFEALMRML [T4S], the protein stability index was 3.08. GEGHGSPPKWQIGEQEFEALMRML [T4H]: the protein stability index came out at 3.19. Consider GEGQGSPPKWQIGEQEFEALMRML [T4Q], for which the protein stability index is 3.08. Next, GEGYGSPPKWQIGEQEFEALMRML [T4Y]: 3.26; GEGVGSPPKWQIGEQEFEALMRML [T4V]: 2.98. With GEGDGSPPKWQIGEQEFEALMRML [T4D], the protein stability index was 2.96. Next, GEGIGSPPKWQIGEQEFEALMRML [T4I]: 2.75; GEGWGSPPKWQIGEQEFEALMRML [T4W]: 2.36. The figure for GEGKGSPPKWQIGEQEFEALMRML [T4K] is 2.13. The figure for GEGLGSPPKWQIGEQEFEALMRML [T4L] is 3.38; for GEGNGSPPKWQIGEQEFEALMRML [T4N] it is 3.07. Take GEGRGSPPKWQIGEQEFEALMRML [T4R]: the protein stability index was found to be 3.44. On to GEGMGSPPKWQIGEQEFEALMRML [T4M], for which the protein stability index was 3.01.

GEDTGSPPKWQIGEQEFEALMRML [G3D]: the protein stability index was determined as 3.19.

Turning to GERTGSPPKWQIGEQEFEALMRML [G3R], the protein stability index came to 3.14. Next, GENTGSPPKWQIGEQEFEALMRML [G3N]: 3.51; GELTGSPPKWQIGEQEFEALMRML [G3L]: 3.45. Regarding GEMTGSPPKWQIGEQEFEALMRML [G3M], the protein stability index came to 3.01. Next, GEFTGSPPKWQIGEQEFEALMRML [G3F]: 2.89. With GETTGSPPKWQIGEQEFEALMRML [G3T], the protein stability index worked out at 3.54. GEETGSPPKWQIGEQEFEALMRML [G3E]: the protein stability index stood at 3.07. The figure for GECTGSPPKWQIGEQEFEALMRML [G3C] is 3.6. Turning to GEWTGSPPKWQIGEQEFEALMRML [G3W], the protein stability index is 2.49. On to GEPTGSPPKWQIGEQEFEALMRML [G3P], for which the protein stability index was 3.14.

As for GEKTGSPPKWQIGEQEFEALMRML [G3K], the protein stability index worked out at 2.64.

Turning to GEYTGSPPKWQIGEQEFEALMRML [G3Y], the protein stability index came out at 3.63. For GEITGSPPKWQIGEQEFEALMRML [G3I], the protein stability index was 3. For GEQTGSPPKWQIGEQEFEALMRML [G3Q], the protein stability index amounted to 3.8. In the case of GEATGSPPKWQIGEQEFEALMRML [G3A], the protein stability index turned out to be 3.42. On to GEVTGSPPKWQIGEQEFEALMRML [G3V], for which the protein stability index was 3.41.

Take GESTGSPPKWQIGEQEFEALMRML [G3S]: the protein stability index was 2.87. The figure for GEHTGSPPKWQIGEQEFEALMRML [G3H] is 2.94; for GEGTLSPPKWQIGEQEFEALMRML [G5L] it is 2.9; for GEGTSSPPKWQIGEQEFEALMRML [G5S] it is 3.01. As for GEGTHSPPKWQIGEQEFEALMRML [G5H], the protein stability index came out at 3.12. For the variant GEGTISPPKWQIGEQEFEALMRML [G5I], the protein stability index amounted to 2.74. Next, GEGTPSPPKWQIGEQEFEALMRML [G5P]: 2.83. Consider GEGTASPPKWQIGEQEFEALMRML [G5A], for which the protein stability index is 3.39. For the variant GEGTVSPPKWQIGEQEFEALMRML [G5V], the protein stability index was found to be 3.09.

Consider GEGTCSPPKWQIGEQEFEALMRML [G5C], for which the protein stability index was 2.86. The figure for GEGTFSPPKWQIGEQEFEALMRML [G5F] is 2.46; for GEGTRSPPKWQIGEQEFEALMRML [G5R] it is 2.77; for GEGTMSPPKWQIGEQEFEALMRML [G5M] it is 2.4.

Regarding GEGTKSPPKWQIGEQEFEALMRML [G5K], the protein stability index stood at 2.15. With GEGTWSPPKWQIGEQEFEALMRML [G5W], the protein stability index was found to be 2.21. With GEGTQSPPKWQIGEQEFEALMRML [G5Q], the protein stability index came to 3.49. For the variant GEGTDSPPKWQIGEQEFEALMRML [G5D], the protein stability index came out at 3.15. GEGTNSPPKWQIGEQEFEALMRML [G5N]: the protein stability index is 3.28. With GEGTESPPKWQIGEQEFEALMRML [G5E], the protein stability index was 3.21. Regarding GEGTYSPPKWQIGEQEFEALMRML [G5Y], the protein stability index worked out at 3.02. Next, GEGTTSPPKWQIGEQEFEALMRML [G5T]: 3; GFGTGSPPKWQIGEQEFEALMRML [E2F]: 2.73. GHGTGSPPKWQIGEQEFEALMRML [E2H]: the protein stability index amounted to 2.96. As for GLGTGSPPKWQIGEQEFEALMRML [E2L], the protein stability index came out at 3.15.

On to GGGTGSPPKWQIGEQEFEALMRML [E2G], for which the protein stability index is 3.06. GTGTGSPPKWQIGEQEFEALMRML [E2T]: the protein stability index worked out at 3.33. For the variant GDGTGSPPKWQIGEQEFEALMRML [E2D], the protein stability index turned out to be 2.79.

GYGTGSPPKWQIGEQEFEALMRML [E2Y]: the protein stability index was 2.28. As to GRGTGSPPKWQIGEQEFEALMRML [E2R], the protein stability index is 3.16. Consider GPGTGSPPKWQIGEQEFEALMRML [E2P], for which the protein stability index was 3.06. For the variant GCGTGSPPKWQIGEQEFEALMRML [E2C], the protein stability index was found to be 3.14. Turning to GSGTGSPPKWQIGEQEFEALMRML [E2S], the protein stability index came out at 2.73. As for GMGTGSPPKWQIGEQEFEALMRML [E2M], the protein stability index is 2.91. Next, GQGTGSPPKWQIGEQEFEALMRML [E2Q]: 3.53; GIGTGSPPKWQIGEQEFEALMRML [E2I]: 4.01. For the variant GNGTGSPPKWQIGEQEFEALMRML [E2N], the protein stability index turned out to be 2.77. As for GVGTGSPPKWQIGEQEFEALMRML [E2V], the protein stability index worked out at 3.94.

Consider GWGTGSPPKWQIGEQEFEALMRML [E2W], for which the protein stability index came to 2.8. In the case of GKGTGSPPKWQIGEQEFEALMRML [E2K], the protein stability index is 2.3.
